Results published in patent US8283126B2, “Voltage sensor domains of voltage-dependent ion channel proteins and uses thereof” (The Rockefeller University, priority 2003, dated 2012).

Tests used:
KvAP channel = target: T1, KvAP channel (Aeropyrum pernix, UniProt Q9YDF8); experiment: Electrophysiological assay of KvAP channels reconstituted into planar lipid bilayers; assay type: biochemical
T1 construct: made in house; host or cells: Escherichia coli
T1 sequence (Q9YDF8 14-295 limits assumed): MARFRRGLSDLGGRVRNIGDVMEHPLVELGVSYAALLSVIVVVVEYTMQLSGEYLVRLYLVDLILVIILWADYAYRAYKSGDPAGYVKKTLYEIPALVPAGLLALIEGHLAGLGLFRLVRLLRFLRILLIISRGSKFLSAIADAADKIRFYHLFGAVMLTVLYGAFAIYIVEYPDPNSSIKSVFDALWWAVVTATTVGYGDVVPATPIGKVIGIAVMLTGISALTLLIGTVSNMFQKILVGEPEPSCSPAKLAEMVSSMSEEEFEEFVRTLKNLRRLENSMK
Description: KvAP channels were expressed in Escherichia coli, extracted with decylmaltoside, purified and reconstituted into planar lipid bilayers of 1-palmitoyl-2-oleoyl-phosphotidylglycerol (POPG) and 1-palmitoyl-2-oleoyl-phosphotidylethanolamine (POPE) for functional studies.
To examine the structural similarity of KvAP to eukaryotic K^+ channel pores, the ability of a small protein toxin from scorpion venom to inhibit the KvAP channel was examined.
To determine the orientation of channels incorporated into planar lipid bilayers, we used CTX, which causes inhibition by binding only to the extracellular side. KvAP channels open in response to membrane depolarization (e.g., when the voltage of the CTX-insensitive (intracellular) side of the membrane is made positive relative to the CTX-sensitive (extracellular) side. KvAP channels are strongly voltage-dependent, opening as a function of membrane voltage, similar to Shaker and other eukaryotic neuronal Kv channels.
The isolate voltage sensor immobilized to a resin in the column efficiently purifies toxins from tarantula venom (FIG. 3A).

[1] = target: T2, isolated voltage sensor domain (S1-S4) of KvAP (Aeropyrum pernix, UniProt Q9YDF8); experiment: Binding of toxins to isolated voltage sensor domain immobilized on Co2+ affinity column, reverse phase HPLC of eluate; details: voltage sensor domain on Co2+ resin column versus control column without domain; elution with 400 mM imidazole
T2 construct: encoding Met1 to Lys147 was cloned into a pQE60 expression vector; made in house; host or cells: E. coli XL1-Blue
T2 sequence (Q9YDF8 with tags, fused parts or gaps): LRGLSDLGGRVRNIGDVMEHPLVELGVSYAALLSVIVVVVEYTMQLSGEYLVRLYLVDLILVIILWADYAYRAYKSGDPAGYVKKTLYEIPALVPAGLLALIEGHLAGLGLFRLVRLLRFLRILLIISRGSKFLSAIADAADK
Description: Isolated voltage sensor was expressed and purified according to Example 5. To generate the voltage sensor domain column for isolation of toxins, 0.1 ml of Co^2+ resin was washed with water and then equilibrated with Buffer A (20 mM Tris pH 8.0, 100 mM KCl, and 10 mM DM) in an eppendorf tube by 3-4 rounds of centrifugation (500 rpm) to collect resin, careful removal of the supernatant with a pipette and resuspension of the resin in either 1 ml of water or 0.4 ml of Buffer A.
Approximately 2 mg of voltage sensor domain was added to the equilibrated resin. The resin and voltage sensor domain protein were incubated for ˜15 minutes. The resin was then applied to a micro chromatography column (Biorad). Samples of the voltage sensor domain prior to addition to the resin and the flow through after addition of resin to the column was kept and later run on an SDS gel to ensure that an excess of protein has been added to the resin and saturated with protein. […]
Remaining protein was eluted from both columns with 0.1 ml of Buffer A containing 400 mM imidazole and reduced with 50 mM DTT at 37° C. for 2 hours to improve separation by reverse phase high performance liquid chromatography (HPLC). […] Peaks are collected and analyzed by MALDI-TOF mass spectrometry focusing on the low molecular weight range (˜800-10,000 Da).

Substance	inhibition of KvAP channel currents (KvAP channel; currents elicited by a +100 mV depolarization)	binding to the isolated voltage sensor domain [1]	Kd (KvAP channel; KvAP channel in planar lipid bilayers, read-out: dissociation constant (Kd) for inhibition of the KvAP channel) [µM]
VSTX1 (ECGKFMWKCKNSNDCCKDLVCSSRWKWCVLASPF)	inhibits KvAP channel currents	binds to the domain	
charybdotoxin [CTX, reference compound]			~400
